Biological target: T1, streptavidin (UniProt P22629 37-163, limits assumed)
T1 construct: Applied in solution to the peptide array and detected by fluorescence; also called streptavidin receptor; receptor
Experiment: peptide array, fluorescence signal of bound streptavidin

T1 sequence (P22629 37-163 limits assumed): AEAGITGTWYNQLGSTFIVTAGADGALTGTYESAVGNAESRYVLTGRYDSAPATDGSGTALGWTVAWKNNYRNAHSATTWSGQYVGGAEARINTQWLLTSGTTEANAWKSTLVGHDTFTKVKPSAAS

| Binder | binding result |
| --- | --- |
| GFEDYLGEYG (Deletion made by design ([-]) or imitated by synthesis conditions [1]; (solvent alone) and [2]; (no reagent); also called His deletion peptide; synthesis conditions [1] and [2]) [… (SEQ ID NO:1) with deletion of the His at the 10th position from the N-terminus] | no binding |
| GWTHPFEQKG (Deletion made by design ([-]) or imitated by synthesis conditions [1]; (solvent alone) and [2]; (no reagent); also called deletion control peptide; synthesis conditions [1] and [2]) [… (SEQ ID NO:2) with deletion of the Met at the 6th position from the N-terminus] | no binding |

From patent publication US20170059578A1 (ROCHE SEQUENCING SOLUTIONS, published 2017)
